In the DeepSol protein solubility set:

Assay: soluble on expression in E. coli; label from the status in PepcDB or PDB records

MKTFFIVASLLAVGLVLAEDSEEKSEVKDVKPWKKLDFKKREPEFLKEMSQDAKTAYFGIKFNPELTKAEKTRMLKEWADQYDVEDDMQKFLDAKKADCDKKKQERKDNYERLGDLIEKADEILDDQENTWNGANEKLEALVKDENRDVMKAFQSFYPFVGRDSEGPRHGHGHGHGHRFHHGRRFGRNIGGGAAPRYNGGGIGSGISIGENPRHHNGGIGSGISMGERHRDGESYDAYGNSKHHHKKHHGF
soluble on expression in E. coli: not soluble

MSQPVAFVTGCSSGIGRALADAFQRAGYRVWASARKEDDVRALAEAGFQAVQLDVNDAAALARLAEELGVEAAGLDVLVNNAGYGAMGPLLDGGVEAMRRQFETNVFAVVGVTRALFPLLRRKSGLVVNVGSVSGVLVTPFAGAYCASKAAVHALSDALRLELAPFGVEVLEVQPGAIASNFGASASREMDSVVDERSPWWPLRRQIQARAAASQDNPTSAEDFARQLLAAVQRRPRPPLVRIGNGSRALPALARWLPRGLLERLLKKRFGLDTRL
soluble on expression in E. coli: not soluble

MANVQSGKMIVGLDIGTSKVVALVGEVAADGSLEIVGIGTHPSRGLKKGVVVNIESTVQSIQRAIEEAQLMAGCRIHSAFVGVAGSHIRSLNSHGIVAIRDREVSAADLERVLDAAQAVAIPADQ
soluble on expression in E. coli: not soluble

MTESYDVVVVGGGPVGLATAWQVAERGHRVLVLERHTFFNENGGTSGAERHWRLQYTQEDLFRLTLETLPLWRALESRCERRLIHEIGSLWFGDTDVVTNEGQISGTAAMMDKLSVRYEWLKATDIERRFGFRGLPRDYEGFLQPDGGTIDVRGTLAALFTLAQAAGATLRAGETVTELVPDADGVSVTTDRGTYRAGKVVLACGPYTNDLLEPLGARLAYSVYEMAIAAYRQATPVTEAPFWFAFQQPTPQDTNLFFGFGHNPWAPGEFVRCGPDFEVDPLDHPSAATGVADRRQMDRLSGWLRDHLPTVDPDPVRTSTCLAVLPTDPERQFFLGTARDLMTHGEKLVVYGAGWAFKFVPLFGRICADLAVEDSTAYDISRLAPQSALLEHHHHHH
soluble on expression in E. coli: soluble

AVFRHTLLHFFERLQSNDIYYKFHNILFLKCEHTEQNAAVIAIARKHQAIWREKITAVLTEAVENQDLADDLDKETAVIFIKSTLDGLIWRWFSSCERFDLGKTAPRIIGIMMDNLENHPDLRRK
soluble on expression in E. coli: not soluble

MGSDKIHHHHHHMEMMRDAVQFEPADSRVTRPSFWSSLPERWTSDVEETLVCCHVRQETHDVKSFFFHSPDGRAFVFEPGQFITLELEIEGETINRCYTISSSPARPHTLSITVKRVPGGKVSNWLHDNVRPGTPIRVLGPAGEFTCARHPARKYLFLSAGSGITPLMSMSRAHHDLGEDRDIVFVHSARTPDDIIFSRELDLIASNHANFRTSFVCESVGARTSWPGVTGFLSLPLLKLIAPDFMEREIFTCGPAPYMKAVRDLLDEGGFDRRRYHEESFSFETLTADGPADAPAPDTGVASAPHGIADMAAFSVSFAKSRREIVCSSGQHVLEAARQSGVRLPASCTQGMCGTCKVKLVSGQVEMKHNGGIRQREIDQGMVLLCCSKPLSDLVIDK
soluble on expression in E. coli: not soluble

MGSDKIHHHHHHMRDLLSKKSHRQLELLELLFEHKRWFHRSELAELLNCTERAVKDDLSHVKSAFPDLIFHSSTNGIRIINTDDSDIEMVYHHFFKHSTHFSILEFIFFNEGCQAESICKEFYISSSSLYRIISQINKVIKRQFQFEVSLTPVQIIGNERDIRYFFAQYFSEKYYFLEWPFENFSSEPLSQLLELVYKETSFPMNLSTHRMLKLLLVTNLYRIKFGHFMEVDKDSFNDQSLDFLMQAEGIEGVAQSFESEYNISLDEEVVCQLFVSYFQKMFFIDESLFMKCVKKDSYVEKSYHLLSDFIDQISVKYQIEMENKDNLIWHLHNTAHLYRQELFTEFILFDQKGNTIRNFQNIFPKFVSDIKKELSHYLETLEVCSSSMMVNHLSYTFITHTKHLVINLLQNQPKLKVLVMSNFDQYHAKFVAETLSYYCSNNFELEVWTELELSKESLEDSPYDIIISNFIIPPIENKRLIYSNNINTVSLIYLLNAMMFIRLDE
soluble on expression in E. coli: not soluble

AYSELQMLSPSERQCVETVVNMGYSYECVLRAMKKKGENIEQILDYLFAH
soluble on expression in E. coli: soluble

MIEPGVNYADLFAKEVRKHPKKYPKTVRLAIDRWYRWKKRKDIWFDVDRANEMMDWVESFIVHTKGDMVGKPFLLEPWEKFIYSWIYGWVKENEKGQVVRVTREAYVQIPKKNGKTLIAVGALGYAMYGEGALSVDCYACASDFAQAQYAAKPFAATILNNPVLLDGTKIFKGPKGTVSSITYDYLHGDMAYTNKFIVQTKNIDNIEGSNPYFVLNDELHKQEKMEQYDNFKSAQISLPQPLMFNISTAGKGSSSVGIRVYKEAKEVLKRDDNDSNFVLIYEPNKGYDWTDRKVWEMCNPNWGISVDLSALESAFKTAQRSAHSKAEFLTKHLDVFVNGADNFFEQDQVEPCLVPTNELGNLSGEPCWIGLDLSKSRDLTCVSLNFPTWDAEGKAILKVKQLYFIPSENIDFREKEDNVPYSELAEQGFVEFCDGKLIDQEQIFHFIEDCMDFYDVQQVNYDPAMSDRLVEKLENLGLECVQVDQYARVLNSPLEDAERLFYEQRIMFDNPLFLYCALNVVVKMDFQGRKVPSKNQSKRKIDGFVAFLCAHKETMDQMIDVNEDDMDEYLDSIYR
soluble on expression in E. coli: not soluble

MLTSAQTRSLFRNNIFYKYRTAISVCQSIGRSIRSEEDWAYTFTLDSRFPKYISDHRNLINESVSFYEKRIPDFPSEKSIQKLKNEIFRNLPFLEHHHHHH
soluble on expression in E. coli: not soluble

MSLSRQRCIIVGASHGGVNLAFALRKEGYEGRITLIDADCNLPYHRPPLSKTHLIANEPAGQLLKPEQGYQKADISLMLGVSVVDVKSKNKQVLLDDGTRHPYTQLVLATGASPITPPIPGIDSAKHLYTIRTADDAHAIATAFKQSEQKRVVVIGGGYVGLETAASLRKSGAVVTVLEREPRLLARVTAPMMSDYFYALHRQHGVEVHNDKNVSEIKTNANENSVVCSDGSEYPADIIIVGVGVRVNTALADKANLEINNGIVVNEANQTSAQDIFAIGDCCAQFNPHYQRWLRLESVQNALDQGKVAAAAICHKAFKTQPVPWFWSDQYNIKLQMVGLSQGYDDVVMRKELDKPDSFSVWYFKGNELLAVDAVNNAKAYVLGTKFINAMEQVDKNKLTDNSAPLSASIIKEFAEGHHHHHH
soluble on expression in E. coli: soluble

MARFSSVLIYDGECPYCSVAAKALEQVDDIGAISWYDESAQSFLTAQFDEPPFAMVLVDRPAQQVYAGRAAAEELAGRAGLPDLVGSLVRDNYEKIAHVVGLASGRGREPDDVHERYVLADDAQDRFDTLAKDAVDRDIRADALEHHHHHH
soluble on expression in E. coli: soluble

MMDLELPPPGLPSQQDMDLIDILWRQDIDLGVSREVFDFSQRRKEYELEKQKKLEKERQEQLQKEQEKAFFAQLQLDEETGEFLPIQPAQHIQSETSGSANYSQVAHIPKSDALYFDDCMQLLAQTFPFVDDNEVSSATFQSLVPDIPGHIESPVFIATNQAQSPETSVAQVAPVDLDGMQQDIEQVWEELLSIPELQCLNIENDKLVETTMVPSPEAKLTEVDNYHFYSSIPSMEKEVGNCSPHFLNAFEDSFSSILSTEDPNQLTVNSLNSDATVNTDFGDEFYSAFIAEPSISNSMPSPATLSHSLSELLNGPIDVSDLSLCKAFNQNHPESTAEFNDSDSGISLNTSPSVASPEHSVESSSYGDTLLGLSDSEVEELDSAPGSVKQNGPKTPVHSSGDMVQPLSPSQGQSTHVHDAQCENTPEKELPVSPGHRKTPFTKDKHSSRLEAHLTRDELRAKALHIPFPVEKIINLPVVDFNEMMSKEQFNEAQLALIRDIRRRGKNKVAAQNCRKRKLENIVELEQDLDHLKDEKEKLLKEKGENDKSLHLLKKQLSTLYLEVFSMLRDEDGKPYSPSEYSLQQTRDGNVFLVPKSKKPDVKKN
soluble on expression in E. coli: not soluble

MGQQLLSHQSVSSQWLANQSATSTLPLLDLSLLSGSDTERQAFLTALRHAARDVGFFYLTGHGIDTSLLRQIQILSRQFFALSDEEKLSIAMIRSPHFRGYNRAASEFTRGQPDWREQFDIGAERTPLPQIAGAPSWTRLQGPNQWPTALPELKPVLLQWQEEMTRMSLRLLRAFALALDLDEQAFDALYGDKPNEHIKLIRYPGREATQSGQGVGAHKDSGFLSFLLQDTQRGLQVEVEEGQWIDAVPREGTFVVNIGELLELASNGYLRATVHRVETPPAGIDRLSIAFFLGARLDAVVPLYPLSAALAAEARGPASDPHNPLFRDVGLNYLKGRLRSHPDVAERYYSDALCS
soluble on expression in E. coli: not soluble

MTTLKLFDIEHAWGLPRKVSPRFGARLILRGLHLDYLHDRASFVGEFPPAIKQQFVEAFPAMVKQLERLVATGEIDTTEQHCVSIEHAGFTCEADTLGSHGYLYIAIYQTKAKPLTTSNLTITR
soluble on expression in E. coli: not soluble

MASNPNDLPDFPEHEYAATQQVGEGVINGDLYLTSASGAIQKGTNTKVTLEPATSYMKAYYAKFGNLDAAKRDPDVQPPVLDPRRATYVREATTDQNGRFDFDHIPNGTYYISSELTWSAQSDGKTITEGGTVTKLVTVSGSQPQKVLLTR
soluble on expression in E. coli: soluble

MGSDKIHHHHHHMRVALLMGGVSREREISLRSGERVKKALEKLGYEHTVFDVREDFLKKVDQLKSFDVVFNVLHGTFGEDVTLQAILDFLGIRYTGSDAFSSMICFDKLVTYRFLKGTVEIPDFVEIKEFMKTSPLGYPCVVKPRREGSSIGVFVCESDEEFQHALKEDLPRYGSVIVQKYIPGREMTVSILETEKGFEILPVLELRPKRRFYDYVAKYTKGETEFILPAPLNPSEERLVKEMALKAFVEAGCRGFGRVDGIFSDGRFYFLEINTVPGLTETSDLPASAKAGGIEFEELVEIILKSAFLKEGVRV
soluble on expression in E. coli: not soluble

GPGSMMSLPVEAVKEFLLKLQDDICHAIEAEDEQATFMEDKWTREGGGGGRTRVIANGAVIEKGGVNFSHVYGKGLPGSSTERHPDMAGCNYQAMGVSLVIHPKNPHVPTSHANVRLFVAEKEGKEPVWWFGGGFDLTPYYAVEEDCYYFHHVAQELCRPFGADVYERFKAWCDEYFFIPHRNEARGIGGLFFDDLNEWPFEKCFAFMQAVGKGFIDAYIPIVNRRKNTPYTEQQVEFQEFRRGRYAEFNLVIDRGTKFGLQSGGRTESILMSLPPRARWGYNWHPEPGTPEARLTEYFLTKKQWV
soluble on expression in E. coli: soluble

MAQHPPYCRNQPGKCQIPLRDLFDRAVVLSHYIHNLSSEMFSEFDKRYTHGRGFITKAINSCHTSSLATPEDKEQAQQMNQKDFLSLIVSILRSWNEPLYHLVTEVRGMQEAPEAILSKAVEIEEQTKRLLEGMELIVSQVHPETKENEIYPVWSGLPSLQMADEESRLSAYYNLLHCLRRDSHKIDNYLKLLKCRIIHNNNC
soluble on expression in E. coli: soluble

MSLTASYETIKARLDGTVLSATFNAPPMNLIGPEVVRDLVALLEELAHPTAPRVVIFDSADADFFFPHVDMTKVPEYTAEAAKAGGPGDASLGMLFRKLSQLPAVTIAKLRGRARGAGSEFLLACDMRFASRENAILGQPEVGIGAPPGAGAIQHLTRLLGRGRALEAVLTSSDFDADLAERYGWVNRAVPDAELDEFVAGIAARMSGFPRDALIAAKSAINAISLPAPAEVRADAALFQQLVRGEKVQQRTAELFKQGFQTRGATELDLGDALGHLKAVDEGHHHHHH
soluble on expression in E. coli: soluble

MDYVDYSNPDNPVITDEGERLAKIHSEADLLVAQCLKRGIWDNLDPAELAGVVSMCTFENRRETGGEAQAVTEAMADSMNSVERIWGELVEDERRHRLPITRQPEAGFATAIHQWASGAPLGYCMAAAAENGAELTPGDFVRWCRQVIDLLEQVAKTAYFDETTRNARQAIDAIRRGVVAIGSLEHHHHHH
soluble on expression in E. coli: soluble

SNAMILIDGKSLSKDLKERLATQVQEYKHHTAITPKLVAIIVGNDPASKTYVASKEKACAQVGIDSQVITLPEHTTESELLELIDQLNNDSSVHAILVQLPLPAHINKNNVIYSIKPEKDVDGFHPTNVGRLQLRDKKCLESCTPKGIMTMLREYGIKTEGAYAVVVGASNVVGKPVSQLLLNAKATVTTCHRFTTDLKSHTTKADILIVAVGKPNFITADMVKEGAVVIDVGINHVDGKIVGDVDFAAVKDKVAAITPVPGGVGPMTITELLYNTFQCAQELNR
soluble on expression in E. coli: soluble
